Measured values published in article PMC7987177.

Key:
[1] = biological target: wild-type Aplysia Kv1 voltage-gated potassium channel subunit, full-length (aKv1/FL) (Aplysia)
[2] = biological target: wild-type Aplysia Kv1 voltage-gated potassium channel subunit, full-length (aKv1/FL) (Aplysia); remark: listed apart in the source

- reduction in current density at +80 mV in cerebellar granule cells electroporated with both constructs, after 1.5 hours of blue light [1]: 80%
- suppression of the fast inactivating aKv1/FL whole-cell current in co-transfected CHO cells after 1.5 hours of blue light [2]: 70%
Substance: Opto-aKv1/SL/V400D (dominant-negative, short-length Opto-aKv1 subunit: aKv1 N-terminus, VfAu1 LOV domain, aKv1 from the T1 domain on, pore mutation V400D)
